Data as given in patent US20260055154A1 (CHENGDU AODA BIOTECHNOLOGY, published 2026).
Starred links: 1 amine or outer side, 2 acyl side, 3 side chain; linkers in the order of their positions; H or OH if unused. Non-standard residues stand in square brackets, D forms with d. Groups on a side chain read outwards from the residue. No end group written: not given here. *: point of attachment. C20 diacid = O=C(O)CCCCCCCCCCCCCCCCCCC(=O)*; γGlu = O=C(O)[C@H](CCC(=O)[*:2])N[*:1]; AEEA = NCCOCCOCC(=O)O; Aib = CC(C)(N)C(=O)O

Key:
[1] = target: glucagon-like peptide-1 (GLP-1) receptor; test: cell-based or functional assay
glucagon (Gcg) receptor = test: cell-based or functional assay

B1: Compound 1 (peptide)
peptide: H[Aib]QGTFTSDYSKYLDEKKAK([AEEA-AEEA-γGlu-C20 diacid])EFVEWLLEGGPSSGAPPPS-NH2
Relative biological activity (cAMP chemiluminescence, RLU, CHO-K1 cells stably expressing GLP-1R; relative to OXM3) [1]: 188%
Biological activity (%) (cAMP chemiluminescence, RLU, CHO-K1 cells stably expressing GcgR; relative to OXM3) (glucagon (Gcg) receptor): 90.5%

B2: Compound 4 (peptide)
peptide: H[Aib]QGTFTSDYSKYLDEKKAK([Gly-Gly-Glu-Gly-Glu-Gly-γGlu-C20 diacid])EFVEWLLEGGPSSGAPPPS-NH2
Relative biological activity (cAMP chemiluminescence, RLU, CHO-K1 cells stably expressing GLP-1R; relative to OXM3) [1]: 116%
Biological activity (%) (cAMP chemiluminescence, RLU, CHO-K1 cells stably expressing GcgR; relative to OXM3) (glucagon (Gcg) receptor): 49.6%

B3: Compound 2 (peptide)
peptide: H[Aib]QGTFTSDYSKYLDEKKAK([PEG5CH2CO-γGlu-C20 diacid])EFVEWLLEGGPSSGAPPPS-NH2
Relative biological activity (cAMP chemiluminescence, RLU, CHO-K1 cells stably expressing GLP-1R; relative to OXM3) [1]: 260%
Biological activity (%) (cAMP chemiluminescence, RLU, CHO-K1 cells stably expressing GcgR; relative to OXM3) (glucagon (Gcg) receptor): 86.9%

B4: Compound 3 (peptide)
peptide: H[Aib]QGTFTSDYSKYLDEKKAKEFVEWLLEGGPSSGAPPPS-NH2
modifications: not fully specified (residue 20)
Relative biological activity (cAMP chemiluminescence, RLU, CHO-K1 cells stably expressing GLP-1R; relative to OXM3) [1]: 158%
Biological activity (%) (cAMP chemiluminescence, RLU, CHO-K1 cells stably expressing GcgR; relative to OXM3) (glucagon (Gcg) receptor): 94.2%
